The labels stand for the following.
B1: Microsomal triglyceride transfer protein large subunit (Homo sapiens), P55157 (parent)
chain: MILLAVLFLCFISSYSASVKGHTTGLSLNNDRLYKLTYSTEVLLDRGKGKLQDSVGYRISSNVDVALLWRNPDGDDDQLIQITMKDVNVENVNQQRGEKSIFKGKSPSKIMGKENLEALQRPTLLHLIHGKVKEFYSYQNEAVAIENIKRGLASLFQTQLSSGTTNEVDISGNCKVTYQAHQDKVIKIKALDSCKIARSGFTTPNQVLGVSSKATSVTTYKIEDSFVIAVLAEETHNFGLNFLQTIKGKIVSKQKLELKTTEAGPRLMSGKQAAAIIKAVDSKYTAIPIVGQVFQSHCKGCPSLSELWRSTRKYLQPDNLSKAEAVRNFLAFIQHLRTAKKEEILQILKMENKEVLPQLVDAVTSAQTSDSLEAILDFLDFKSDSSIILQERFLYACGFASHPNEELLRALISKFKGSIGSSDIRETVMIITGTLVRKLCQNEGCKLKAVVEAKKLILGGLEKAEKKEDTRMYLLALKNALLPEGIPSLLKYAEAGEGPISHLATTALQRYDLPFITDEVKKTLNRIYHQNRKVHEKTVRTAAAAIILNNNPSYMDVKNILLSIGELPQEMNKYMLAIVQDILRFEMPASKIVRRVLKEMVAHNYDRFSRSGSSSAYTGYIERSPRSASTYSLDILYSGSGILRRSNLNIFQYIGKAGLHGSQVVIEAQGLEALIAATPDEGEENLDSYAGMSAILFDVQLRPVTFFNGYSDLMSKMLSASGDPISVVKGLILLIDHSQELQLQSGLKANIEVQGGLAIDISGAMEFSLWYRESKTRVKNRVTVVITTDITVDSSFVKAGLETSTETEAGLEFISTVQFSQYPFLVCMQMDKDEAPFRQFEKKYERLSTGRGYVSQKRKESVLAGCEFPLHQENSEMCKVVFAPQPDSTSSGWF
partner: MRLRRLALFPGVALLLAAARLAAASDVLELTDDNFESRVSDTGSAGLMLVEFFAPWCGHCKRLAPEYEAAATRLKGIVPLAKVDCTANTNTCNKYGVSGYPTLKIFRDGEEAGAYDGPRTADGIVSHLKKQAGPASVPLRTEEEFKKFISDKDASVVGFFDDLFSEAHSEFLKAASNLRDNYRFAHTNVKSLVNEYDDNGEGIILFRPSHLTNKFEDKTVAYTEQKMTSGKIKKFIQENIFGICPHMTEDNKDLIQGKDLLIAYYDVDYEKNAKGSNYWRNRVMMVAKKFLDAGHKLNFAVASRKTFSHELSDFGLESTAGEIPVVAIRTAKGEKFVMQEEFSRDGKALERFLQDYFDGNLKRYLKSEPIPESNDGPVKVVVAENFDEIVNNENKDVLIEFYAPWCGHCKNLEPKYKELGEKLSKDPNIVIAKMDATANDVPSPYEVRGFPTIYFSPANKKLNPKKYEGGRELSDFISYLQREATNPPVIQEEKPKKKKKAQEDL
B2: Microsomal triglyceride transfer protein large subunit (Homo sapiens), P55157 (parent)
chain: B1 chain

The variants in one experiment derive from B1. The settings on record: with pdia3_chlae PDIA3, Q4VIT4.
In the case of D361Y, the “effect of a mutation on the interaction” value is given as “disrupting interaction strength”.

In the next experiment the parent is B1. The settings on record: with pdia3_chlae PDIA3, Q4VIT4. This is another data set of the same source.
On to D361Y, for which the “effect of a mutation on the interaction” value is “decreasing interaction strength”.

As to D361E, the “effect of a mutation on the interaction” value is recorded as “with no effect”.

The variants in a further experiment derive from B2. The note with it: with apob_human APOB.
On to D361E, for which the “effect of a mutation on the interaction” value was “with no effect”.

For the variant D361Y, the “effect of a mutation on the interaction” value is listed as “with no effect”.

In a further experiment the parent is B2. The note with it: with apob_human APOB. The source holds these as a separate data set.
Take D361E: the “effect of a mutation on the interaction” value was “increasing interaction strength”.

Values taken from IntAct's records for PubMed 27487388.
